The record followed here is the RNAGym collection of RNA variant scans (doi:10.1093/nar/gkz1192).

The chains are these.
B1: CPEB3 Ribozyme (parent)
chain: UAACAGGGGGCCACAGCAGAAGCGUUCACGUCGCAGCCCCUGUCAGAUUCUGGUGAAUCUGCGAAUUCUGCUGUAUAUCUC

The variants in the data set derive from B1. In words: self-cleavage, relative activity (ratio to wild type); higher = more cleavage; in vitro, sequencing. An outline of the steps:
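For each CPEB3 ribozyme variant, relative activity is its cleaved/total read fraction divided by the unmutated ribozyme's. Barcoded error-prone PCR libraries were transcribed by T7 RNA polymerase (5 hours, 37°C) and held in DNase I for 15 min before an EDTA stop, with cleavage occurring throughout. Template-switching reverse transcription and Illumina sequencing were used to read the RNAs. A 5-read minimum applied, and results are the mean of three batches.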
Turning to C71G U80G, the self-cleavage worked out at 0.4. Then U74C C81A, with 1.26. Then U74C C81U, with 1.23; and U69G U72A, with 0.35.

In the case of U69G U72C, the self-cleavage turned out to be 0.44. Then U74G U78C, with 1.26; and U74G U78A, with 1.26; and G70A, with 0.55. On to G70U, for which the self-cleavage was 0.37. G70C: the self-cleavage was determined as 0.31.

C71U U80A: the self-cleavage is 0.72. The value for C71U U80C was 1.23. In the case of C71U U78C, the self-cleavage amounted to 0.77. The value for C71U U78A was 0.65; that for U69G G73A was 0.98. Then U69G U76A, with 0.94. Then U69G U76C, with 0.98; and A75C, with 1.2; and A75G, with 1.01. Turning to A75U, the self-cleavage was 1.15. The value for G73A A75G was 1.19; that for A77U was 1.11; that for A77G was 1.06. Then A77C, with 0.98; and U76C U78A, with 1.19. Take U76C U78C: the self-cleavage is 1.01.

As to U72A U78A, the self-cleavage was found to be 0.72. Then U72A U78C, with 0.8. Then G73C U78G, with 1.23; and C79G U80C, with 0.27; and A75G A77G, with 0.57.

Take A75G A77U: the self-cleavage is 1.05. Then C71U U72C, with 1.02; and C71U U72G, with 0.62; and U72G A75G, with 1.2. As to C71G A75G, the self-cleavage was found to be 0.62. Then G73A, with 1.27.

On to G73C, for which the self-cleavage amounted to 1.25.

Take G73U: the self-cleavage was 1.28. As to G73A U76C, the self-cleavage was determined as 1.26. Then A77U C81A, with 1.31; and A77G C81A, with 1.2. Then U72A, with 0.81. U72C: the self-cleavage is 1.13. For the variant U72G, the self-cleavage worked out at 0.98. The value for G70C C71U was 0.3; that for U72G U80C was 1.19.

Turning to C79U U80A, the self-cleavage stood at 1.24. Then C71G U72C, with 0.44. Then U72C U80G, with 1.23; and U72C U80C, with 1.24. Then U72C U80A, with 1.24; and U78C C81A, with 1.21.

On to U78C C81U, for which the self-cleavage was found to be 1.15. Then U78C C81G, with 1.25; and G73A U74A, with 1.25; and A75G C79U, with 1.18.

Consider A75C U80C, for which the self-cleavage was 1.18. Consider A77U C79A, for which the self-cleavage amounted to 1.26. Then G70A C71U, with 0.41; and G70A C71G, with 0.23. Then U72G G73A, with 1.3; and U76C C81A, with 1.24; and G70U U78A, with 0.48.

For the variant A77G U78A, the self-cleavage was 1.17. A77G U78C: the self-cleavage was 0.82.

With A77G U78G, the self-cleavage was 0.9.

For the variant U69G A77U, the self-cleavage was 0.27. The value for U69G A77G was 0.78; that for A75G U76C was 0.94; that for A75G U76A was 1.05. As for A75G U76G, the self-cleavage stood at 0.43. The value for C71U U76C was 0.84; that for G70U U74C was 0.26. The value for G73U C79U was 1.32; that for C79A U80C was 1.23; that for G73A U78C was 1.32. The value for U80A C81U was 1.24; that for G70U U80A was 0.67; that for G70A U80A was 1.

On to G70A U80C, for which the self-cleavage came to 0.45. Turning to G70A A77U, the self-cleavage was 1.07. The value for G70A A77G was 0.53; that for C81U was 1.18. The value for C81A was 1.05; that for C81G was 1.14; that for A75C U78C was 1.15. U69G U78C: the self-cleavage worked out at 0.71. The value for U69G U78A was 0.45; that for U74C A77U was 1.26; that for U74C A77G was 1.32.

With G70C A77G, the self-cleavage came out at 0.49. In the case of C71A U72C, the self-cleavage was 0.41. Then C71A U72A, with 0.22; and U74G U76C, with 1.16. Then G70A U76C, with 0.75; and G70A U76A, with 0.8. As for G73U U76C, the self-cleavage was determined as 1.21.

Take U80G C81U: the self-cleavage was determined as 1.39. The value for U74A U76C was 1.34; that for U72G C79U was 1.21; that for A75U A77U was 1.2. The value for A75U A77G was 1.18.

With U76A U78C, the self-cleavage amounted to 1.1. Then U76A U78G, with 1.37; and U76A U78A, with 1.09. The value for U78A C79U was 1.29. The value for U78A U80C was 1.07; that for U78A U80G was 1.29; that for U78A U80A was 1.23. Consider A77C U80A, for which the self-cleavage is 1.05. U72C G73A: the self-cleavage turned out to be 1.25. Then U72C G73U, with 1.48; and A75G U78C, with 0.67. The value for A75G U78A was 1.3. Then A75G U78G, with 0.62.

For the variant U72G U78A, the self-cleavage is 1.13. The value for U72G U78G was 1; that for U72G U78C was 1.01. Then U69G, with 0.74; and U74A A77G, with 1.26; and U72G A77U, with 0.71. The value for U72G A77G was 1; that for U72C A75G was 1.14. As for U72C A75U, the self-cleavage was found to be 1.25.

On to U69C U78G, for which the self-cleavage stood at 0.61. The value for U69C U78C was 0.69.

As for U69C U78A, the self-cleavage came out at 0.66. The value for U69G C71A was 0.09. As for U76C U80G, the self-cleavage came out at 1.24. Then U76C U80A, with 1.26; and U76C U80C, with 1.13.

With A77U U78C, the self-cleavage worked out at 1.05. Then A77U U78A, with 0.9; and G70A U78C, with 0.8. The value for G70A U78G was 0.46; that for G70A U78A was 0.43; that for C71G U78C was 0.36. The value for U78A C81U was 0.8; that for G73A A77G was 1.31; that for U74A U80A was 1.26.

For the variant U74A U80C, the self-cleavage turned out to be 1.24. The value for U69G C81A was 0.86; that for U69C U76G was 0.79.
